Data on 8 molecules can be found in publication PMC9238395, “Identification and Tetramer Structure of Hemin-Binding Protein SPD_0310 Linked to Iron Homeostasis and Virulence of Streptococcus pneumoniae” (mSystems, 2022).

Sequences and labels used below:
T1: SPD_0310 (Streptococcus pneumoniae, UniProt Q04MC1, M38A/L39A/G88A/R97A)
T1 sequence (Q04MC1 1-494 M38A/L39A/G88A/R97A): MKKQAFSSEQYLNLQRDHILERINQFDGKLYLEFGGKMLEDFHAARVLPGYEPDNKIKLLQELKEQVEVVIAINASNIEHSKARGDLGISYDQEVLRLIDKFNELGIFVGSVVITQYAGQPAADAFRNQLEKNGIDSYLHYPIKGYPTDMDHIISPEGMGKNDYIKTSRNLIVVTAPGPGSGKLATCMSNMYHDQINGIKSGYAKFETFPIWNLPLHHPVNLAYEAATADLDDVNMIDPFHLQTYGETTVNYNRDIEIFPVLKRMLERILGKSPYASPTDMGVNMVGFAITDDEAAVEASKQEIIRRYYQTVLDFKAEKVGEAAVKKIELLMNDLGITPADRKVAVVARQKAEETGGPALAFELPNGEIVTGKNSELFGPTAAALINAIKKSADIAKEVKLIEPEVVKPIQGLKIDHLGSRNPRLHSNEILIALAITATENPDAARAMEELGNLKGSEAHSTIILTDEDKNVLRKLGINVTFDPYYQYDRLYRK

T2: SPD_0310 (Streptococcus pneumoniae, UniProt Q04MC1, E40A/R307A)
T2 sequence (Q04MC1 1-494 E40A/R307A): T1 sequence (Q04MC1 1-494 M38A/L39A/G88A/R97A)

B1: SPD_0310 (natural protein)
chain: T1 sequence (Q04MC1 1-494 M38A/L39A/G88A/R97A)
notes: SPD_0310, hypothetical protein of the UPF0371 family, S. pneumoniae D39; spd_0310 gene cloned from genomic DNA into pGEX-4T-1 (BamH I/Sal I); Homotetramer by crystal structure and DLS; also called apo-0310; apo-SPD_0310
B2: GAPDH (natural protein, S. pneumoniae D39, UniProt A0A0H2US80 1-335, looked up)
chain: MVVKVGINGFGRIGRLAFRRIQNVEGVEVTRINDLTDPVMLAHLLKYDTTQGRFDGTVEVKEGGFEVNGKFIKVSAERDPEQIDWATDGVEIVLEATGFFAKKEAAEKHLKGGAKKVVITAPGGNDVKTVVFNTNHDVLDGTETVISGASCTTNCLAPMAKALQDNFGVVEGLMTTIHAYTGDQMILDGPHRGGDLRRARAGAANIVPNSTGAAKAIGLVIPELNGKLDGSAQRVPTPTGSVTELVAVLEKNVTVDEVNAAMKAASNESYGYTEDPIVSSDIVGMSYGSLFDATQTKVLDVDGKQLVKVVSWYDNEMSYTAQLVRTLEYFAKIAK
notes: GAPDH (Gap) of S. pneumoniae D39, recombinant; also called Gly-3-pho dehydrogenase; source: expressed and purified using the GST system
B3: SPD_1609 (natural protein, S. pneumoniae D39, UniProt A0A0H2ZL87 1-355, looked up)
chain: CSGGSNSTTASSSEEKADKSQELVIYSNSVSNGRGDWLTAKAKEAGFNIKMVDIAGAQLADRVIAEKNNAVADMVFGIGAVDSNKIRDQKLLVQYKPKWLDKIDQSLSDKDNYYNPVIVQPLVLIGAPDVKEMPKDWTELGSKYKGKYSIYGLQGGTGRAILASILVRYLDEKGDLGVSEKGWEVAKEYFANAYTLQKGESSVVKALDKESPIQYGMIWGSGALIGQKEQNVEFKVMTPEIGVPFVTEQTMVLSTSKKQALAKEFIDWFGQSEIQVEYSKKFGSIPANKDALKELPEDTKKFVDQVKPQNIDWEAVGKHLDEWVEKAELEYVK
notes: source: expressed and purified using the GST system
B4: SPD_0226 (natural protein)
chain: MTVGLSYEDSAVKLLNDGANIKVVYPKEGTVFLPASAAIVKKSKNMENAKKFIDFIISQEVQDTLGTTTTNRPVRKNAKTSENMKPIDKIKTLTEDYDYVIKNKSDIVKKYNEVFTDIQSKQ
notes: SPD_0226, intracellular iron transporter of S. pneumoniae D39
B5: SPD_0227 (natural protein)
chain: MNIEGYSDLLKPELKGKIATADPANSSSAFAQLTNMLQAQGGYKDDKAWSYVKDLFTLIDGIVK
notes: SPD_0227, intracellular iron transporter of S. pneumoniae D39
B6: SPD_0090 (natural protein, S. pneumoniae D39, UniProt A0A0H2ZQK8 1-491, looked up)
chain: CGNLTGNSKKAADSGDKPVIKMYQIGDKPDNLDELLANANKIIEEKVGAKLDIQYLGWGDYGKKMSVITSSGENYDIAFADNYIVNAQKGAYADLTELYKKEGKDLYKALDPAYIKGNTVNGKIYAVPVAANVASSQNFAFNGTLLAKYGIDISGVTSYETLEPVLKQIKEKAPDVVPFAIGKVFIPSDNFDYPVANGLPFVIDLEGDTTKVVNRYEVPRFKEHLKTLHKFYEAGYIPKDVATSDTSFDLQQDTWFVREETVGPADYGNSLLSRVANKDIQIKPITNFIKKNQTTQVANFVISNNSKNKEKSMEILNLLNTNPELLNGLVYGPEGKNWEKIEGKENRVRVLDGYKGNTHMGGWNTGNNWILYINENVTDQQIENSKKELAEAKESPALGFIFNTDNVKSEISAIANTMQQFDTAINTGTVDPDKAIPELMEKLKSEGAYEKVLNEMQKQYDEFLKNKK
notes: as for B3

Series [1] has as its target T1, SPD_0310. Briefly: fluorescence quenching titration. Type of series: binding.
For series [2], the target named is T3, SPD_0310 (Streptococcus pneumoniae, UniProt Q04MC1).
T3 construct: recombinant SPD_0310 expressed from pGEX-4T-1, GST tag removed with thrombin; homotetramer
Nature of the series: SPR; also dialysis/ICP-MS, hemin-agarose pulldown, UV-Vis shift, CD thermal shift, stopped-flow fluorescence. Type of series: binding. For orientation: Surface plasmon resonance follows binding to a sensor surface in real time, without labels.

Series [3] has as its target T2, SPD_0310. Briefly: fluorescence quenching titration. Type of series: binding.
Series [4] deals with SPD_0310 (S. pneumoniae D39) (UniProt Q04MC1). Briefly: SPR; OpenSPR; SPD_0310 immobilised on a gold nanoparticle COOH sensor chip; analytes in 1× PBS, 30 μL/min; regeneration with 0.5 to ~10 mM HCl; 1:1 model.
Series [5] deals with the molecule itself. Nature of the series: dynamic light scattering; fresh SPD_0310 in the native state, 3 μM in 1× PBS, 25°C.
The target in series [6] is B1. Nature of the series: SPR; OpenSPR; SPD_0310 immobilised on a gold nanoparticle COOH sensor chip; analytes in 1× PBS, 30 μL/min; regeneration with 0.5 to ~10 mM HCl; 1:1 model. Particulars: both partners purified.

In general, Kd refers to the free concentration of one partner at which half of the binding sites on the other are occupied at equilibrium, for simple one-to-one binding. Regarding `C=CC1=C(C)C2=Cc3c(C=C)c(C)c4[n]3[Fe]([Cl])[n]3c(c(C)c(CCC(=O)O)c3=CC3=NC(=C4)C(C)=C3CCC(=O)O)=CC1=N2` [hemin], the “% of WT binding constant” value is 56 % of WT binding constant in series [1] and 11 % of WT binding constant in series [3]. In series [2], the equilibrium dissociation constant (Kd) is 96.9 nM.
In turn, bovine lactoferrin (natural protein) came in with a Kd in series [4] of 303 nM.
Broadly, the stoichiometry N is the number of molecules, sites or subunits per partner or assembly. On to B1, for which the “stoichiometry N” value in series [5] was 4.
B2: in series [6], the Kd came to 103 ± 1.29 nM.
Same read-out and setting: under B3 stands 6.92 ± 0.08 nM.
In series [6], B4 gave a Kd of 1070 ± 100 nM.
Same read-out and setting: under B5 stands 420 ± 30 nM.
Same read-out and setting: under B6 stands 3.41 ± 0.01 nM.
